One may read the Kd as the concentration at which binding is half-saturated. Higher therefore signals a looser complex.

B1: Id_ii_S1_P3E.3_K3.2_C3.2_[C-2T]_[T-1G]_H3.2_A3.1_F3.1_T3.2_[A10T] (ssRNA)
RNA: UCUCUUUGUAUAUAUAUUUCUCUU
B2: Id_ii_S1_P3E.3_K3.2_C3.2_[C-2T]_[T-1A]_H3.2_A3.1_F3.1_T3.2_[T9C]_[A10G] (ssRNA)
RNA: UCUCUUUAUAUAUAUACGUCUCUU
B3: Ib_S1_P4E.1_K4.1_C4.1_H4.1_[T1C]_A4.1_[A6G]_F4.1_T4.1 (ssRNA)
RNA: UCUCUUCGUAUGUUAUCUCUU
B4: Id_ii_S1_P3E.3_K3.2_C3.2_[C-2T]_[T-1G]_H3.2_A3.1_F3.1_T3.2_[A10C] (ssRNA)
RNA: UCUCUUUGUAUAUAUAUCUCUCUU
B5: Id_ii_S1_P3E.3_K3.2_C3.2_[C-2T]_[T-1A]_H3.2_A3.1_F3.1_T3.2_[T9C]_[A10T] (ssRNA)
RNA: UCUCUUUAUAUAUAUACUUCUCUU
B6: Ib_S1_P4E.1_K4.1_C4.1_H4.1_[T1C]_A4.1_[A6T]_F4.1_T4.1 (ssRNA)
RNA: UCUCUUCGUAUUUUAUCUCUU
B7: Id_ii_S1_P3E.3_K3.2_C3.2_[C-2T]_[T-1A]_H3.2_A3.1_F3.1_T3.2_[T9G]_[A10T] (ssRNA)
RNA: UCUCUUUAUAUAUAUAGUUCUCUU
B8: Id_ii_S1_P3E.3_K3.2_C3.2_[C-2T]_[T-1C]_H3.2_A3.1_F3.1_T3.2_[T9C]_[A10C] (ssRNA)
RNA: UCUCUUUCUAUAUAUACCUCUCUU
B9: Id_ii_S1_P3E.3_K3.2_C3.2_[C-2T]_[T-1G]_H3.2_A3.1_F3.1_T3.2_[A10G] (ssRNA)
RNA: UCUCUUUGUAUAUAUAUGUCUCUU
B10: Id_ii_S1_P3E.3_K3.2_C3.2_[C-2T]_[T-1A]_H3.2_A3.1_F3.1_T3.2_[A10C] (ssRNA)
RNA: UCUCUUUAUAUAUAUAUCUCUCUU
B11: Id_ii_S1_P3E.3_K3.2_C3.2_[C-2T]_[T-1C]_H3.2_A3.1_F3.1_T3.2_[A10C] (ssRNA)
RNA: UCUCUUUCUAUAUAUAUCUCUCUU
B12: Id_ii_S1_P3E.3_K3.2_C3.2_[C-2T]_[T-1C]_H3.2_A3.1_F3.1_T3.2_[T9A]_[A10T] (ssRNA)
RNA: UCUCUUUCUAUAUAUAAUUCUCUU
B13: Id_ii_S1_P3E.3_K3.2_C3.2_[C-2T]_[T-1C]_H3.2_A3.1_F3.1_T3.2_[A10G] (ssRNA)
RNA: UCUCUUUCUAUAUAUAUGUCUCUU
B14: Id_ii_S1_P3E.3_K3.2_C3.2_[C-2T]_[T-1C]_H3.2_A3.1_F3.1_T3.2_[T9C]_[A10G] (ssRNA)
RNA: UCUCUUUCUAUAUAUACGUCUCUU
B15: Id_ii_S1_P3E.3_K3.2_C3.2_[C-2T]_[T-1A]_H3.2_A3.1_F3.1_T3.2_[T9A]_[A10T] (ssRNA)
RNA: UCUCUUUAUAUAUAUAAUUCUCUU
B16: Id_ii_S1_P3E.3_K3.2_C3.2_[C-2T]_[T-1C]_H3.2_A3.1_F3.1_T3.2_[A10T] (ssRNA)
RNA: UCUCUUUCUAUAUAUAUUUCUCUU
B17: Id_ii_S1_P3E.3_K3.2_C3.2_[C-2T]_[T-1C]_H3.2_A3.1_F3.1_T3.2_[T9G]_[A10T] (ssRNA)
RNA: UCUCUUUCUAUAUAUAGUUCUCUU
B18: Id_ii_S1_P3E.3_K3.2_C3.2_[C-2T]_[T-1A]_H3.2_A3.1_F3.1_T3.2_[T9C] (ssRNA)
RNA: UCUCUUUAUAUAUAUACAUCUCUU
B19: Id_ii_S1_P3E.3_K3.2_C3.2_[C-2T]_[T-1C]_H3.2_A3.1_F3.1_T3.2_[T9C] (ssRNA)
RNA: UCUCUUUCUAUAUAUACAUCUCUU
B20: Id_ii_S1_P3E.3_K3.2_C3.2_[C-2T]_[T-1A]_H3.2_A3.1_F3.1_T3.2_[A10G] (ssRNA)
RNA: UCUCUUUAUAUAUAUAUGUCUCUU
B21: Id_ii_S1_P3E.3_K3.2_C3.2_[C-2T]_[T-1A]_H3.2_A3.1_F3.1_T3.2_[A10T] (ssRNA)
RNA: UCUCUUUAUAUAUAUAUUUCUCUU
B22: Id_ii_S1_P3E.3_K3.2_C3.2_[C-2T]_[T-1C]_H3.2_A3.1_F3.1_T3.2_[T9A]_[A10C] (ssRNA)
RNA: UCUCUUUCUAUAUAUAACUCUCUU
B23: Ic_S1_P4E.1_K4.1_C4.1_H4.1_A4.1_[A6T]_F4.1_T4.1 (ssRNA)
RNA: UCUCUUUGUAUUUUAUCUCUU
B24: Id_ii_S1_P3E.3_K3.2_C3.2_[C-2T]_[T-1C]_H3.2_A3.1_F3.1_T3.2_[T9G]_[A10C] (ssRNA)
RNA: UCUCUUUCUAUAUAUAGCUCUCUU
B25: Id_ii_S1_P3E.3_K3.2_C3.2_[C-2T]_[T-1A]_H3.2_A3.1_F3.1_T3.2_[T9G]_[A10C] (ssRNA)
RNA: UCUCUUUAUAUAUAUAGCUCUCUU

For this series, the target named is T1, PUF4 RNA-binding domain (Saccharomyces cerevisiae, UniProt P25339 537-888).
T1 sequence: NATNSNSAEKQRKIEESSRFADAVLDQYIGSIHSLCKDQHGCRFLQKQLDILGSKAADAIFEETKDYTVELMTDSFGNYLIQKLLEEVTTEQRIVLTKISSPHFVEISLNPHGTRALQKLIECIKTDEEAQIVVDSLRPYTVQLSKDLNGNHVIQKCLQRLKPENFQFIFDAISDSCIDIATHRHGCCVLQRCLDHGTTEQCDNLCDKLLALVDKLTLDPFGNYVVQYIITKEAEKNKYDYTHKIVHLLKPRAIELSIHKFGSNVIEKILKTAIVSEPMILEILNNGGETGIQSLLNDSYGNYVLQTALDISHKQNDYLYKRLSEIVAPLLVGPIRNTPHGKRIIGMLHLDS
As to the kind of experiment: Mg; RNA-MaP; 20 mM Na-HEPES pH 7.4, 30 mM KOAc, 0.75 mM MgCl2, 0.1% Tween-20, 5% glycerol, 0.1 mg/mL BSA, 2 mM DTT; 25 C; 0.0125-409.6 nM protein. Particulars: tags: N-His6-TEV cleaved; C-SNAP kept, Cy3B-labelled; label: tethered on chip by stalled RNA polymerase.
The molecule B1 came in with a Kd of 5 nM. In the case of B2, binding was put at a Kd of 503 nM. With B3, the Kd was greater than 2300 nM. As for B4, binding was put at a Kd of 3.36 nM. B5 gave a Kd of 172 nM. As for B6, the Kd is 591 nM. On to B7, for which binding was characterised by a dissociation constant (Kd) of 140 nM. B8: the dissociation constant Kd worked out at 1390 nM. In turn, B9 yielded a Kd of 4.85 nM. The molecule B10 registered a Kd of 370 nM. In the case of B11, binding was put at a Kd of 602 nM. B12 yielded a Kd of 1010 nM. In turn, B13 displayed a dissociation constant (Kd) of 1210 nM.

On to B14, for which binding was put at a Kd of 1450 nM. On to B15, for which the dissociation constant (Kd) stood at 642 nM. Next, B16: 591 nM; B17: 771 nM.

With B18, the affinity, expressed as Kd, was 384 nM.

B19 displayed an equilibrium dissociation constant (Kd) of 1030 nM. Take B20: the Kd was 427 nM. B21: the dissociation constant Kd was 329 nM. The value for B22 was 960 nM; that for B23 was 2.46 nM; that for B24 was 620 nM. With B25, the Kd turned out to be 148 nM.

Values taken from article PMC9352680, “A comprehensive thermodynamic model for RNA binding by the Saccharomyces cerevisiae Pumilio protein PUF4”.
